Blank lines part the entries; values can stand above or below the binder they belong to.
Key:
human FcγRI [1] = target: T1, human FcγRI (human, UniProt P12314 16-288, limits assumed, biotinylated (site not stated)); experiment: BLI (summary of Example 8)
human FcγRIIa-H167 [2] = target: T2, human FcγRIIa-H167 (human, UniProt P12318 36-218, limits assumed, biotinylated (site not stated)); experiment: BLI (summary of Example 8)
T2 sequence (looked up): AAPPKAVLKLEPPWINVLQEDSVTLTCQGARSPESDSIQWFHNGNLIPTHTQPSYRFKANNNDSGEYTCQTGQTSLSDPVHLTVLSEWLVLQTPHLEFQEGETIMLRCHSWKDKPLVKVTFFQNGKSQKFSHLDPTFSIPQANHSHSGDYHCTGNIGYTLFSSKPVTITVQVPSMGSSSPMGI

human FcγRIIa-R167 [3] = target: T3, human FcγRIIa-R167 (human, UniProt P12318 36-218, limits assumed, biotinylated (site not stated)); experiment: BLI (summary of Example 8)
T3 sequence (looked up): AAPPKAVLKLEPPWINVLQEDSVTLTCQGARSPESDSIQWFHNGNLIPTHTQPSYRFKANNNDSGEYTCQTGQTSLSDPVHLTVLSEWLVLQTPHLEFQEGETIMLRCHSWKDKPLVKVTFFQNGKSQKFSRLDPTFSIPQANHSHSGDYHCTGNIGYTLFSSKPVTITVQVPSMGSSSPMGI

human FcγRIIb [4] = target: T4, human FcγRIIb (human, UniProt P31994 46-217, limits assumed, biotinylated (site not stated)); experiment: BLI (summary of Example 8)
T4 sequence (looked up): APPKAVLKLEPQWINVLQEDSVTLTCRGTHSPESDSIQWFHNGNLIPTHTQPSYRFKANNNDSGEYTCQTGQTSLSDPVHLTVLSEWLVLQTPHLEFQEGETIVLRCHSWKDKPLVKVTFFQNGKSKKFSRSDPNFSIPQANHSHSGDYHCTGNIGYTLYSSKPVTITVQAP

human IL-13 [5] = target: T5, human IL-13 (human, UniProt P35225 25-146, limits assumed); experiment: cell-based or functional assay
T5 sequence (P35225 other isoform, or with tags, fused parts or gaps limits assumed): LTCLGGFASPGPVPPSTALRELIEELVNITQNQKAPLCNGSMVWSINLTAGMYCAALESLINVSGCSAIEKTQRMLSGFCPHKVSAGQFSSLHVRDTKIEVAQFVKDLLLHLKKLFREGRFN

human IL-13 [6] = target: T5, human IL-13; experiment: cell-based or functional assay; remark: listed apart in the source
cynomolgus IL-13 = cynomolgus IL-13 (cynomolgus, UniProt Q0PW92 21-132); experiment: cell-based or functional assay
Sequence of cynomolgus IL-13 (Q0PW92 entry or part of it): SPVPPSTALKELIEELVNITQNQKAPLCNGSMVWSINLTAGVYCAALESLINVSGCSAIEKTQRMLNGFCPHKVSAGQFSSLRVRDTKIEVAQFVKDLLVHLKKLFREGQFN

HIS-tagged human FcRn [7] = target: T6, HIS-tagged human FcRn (human, UniProt P55899 24-297; P61769 21-119); experiment: SPR (Biacore 8K+), pH 6.0, 25 C, steady-state fit
T6 construct: not shown: HIS tag

human FcγRIIIb-NA1 = human FcγRIIIb-NA1 (human, UniProt O75015 17-200, limits assumed, biotinylated (site not stated)); experiment: BLI (Octet RH96), biotinylated Fcγ receptor on streptavidin sensors
Sequence of human FcγRIIIb-NA1 (O75015 other isoform, or with tags, fused parts or gaps limits assumed): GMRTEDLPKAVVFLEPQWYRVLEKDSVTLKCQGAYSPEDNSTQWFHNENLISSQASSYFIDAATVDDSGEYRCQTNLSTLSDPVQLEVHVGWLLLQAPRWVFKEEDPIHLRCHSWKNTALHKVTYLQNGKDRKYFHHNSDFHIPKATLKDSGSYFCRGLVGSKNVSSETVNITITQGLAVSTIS

human FcγRIIIb-NA2 = human FcγRIIIb-NA2 (human, UniProt O75015 17-200, limits assumed, biotinylated (site not stated)); experiment: as above
Sequence of human FcγRIIIb-NA2 (O75015 17-200 N65S limits assumed): as the sequence (O75015 other isoform, or with tags, fused parts or gaps limits assumed) above, with R20S, N49S, D66N, V90I counted along it

human FcγRIIIa-V176 = human FcγRIIIa-V176 (human, UniProt P08637 17-208, biotinylated (site not stated)); experiment: BLI (Octet RH96), biotinylated Fcγ receptor on streptavidin sensors, antibody at 10,000 nM
Sequence of human FcγRIIIa-V176 (P08637 17-208 F176V limits assumed): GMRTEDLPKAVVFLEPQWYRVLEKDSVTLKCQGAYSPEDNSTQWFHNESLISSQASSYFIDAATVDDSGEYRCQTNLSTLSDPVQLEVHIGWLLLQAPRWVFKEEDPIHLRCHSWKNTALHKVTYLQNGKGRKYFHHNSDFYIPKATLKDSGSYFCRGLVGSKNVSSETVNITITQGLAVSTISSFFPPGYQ

human FcγRIIIa-F176 = human FcγRIIIa-F176 (human, UniProt P08637 17-208, biotinylated (site not stated)); experiment: as above
Sequence of human FcγRIIIa-F176 (P08637 17-208 limits assumed): as the sequence (P08637 17-208 F176V limits assumed) above, with V160F counted along it

mouse IL-13 = target: T7, mouse IL-13 (mouse, UniProt P20109 19-131, limits assumed); experiment: SPR (Biacore 8K+), antibody captured on anti-human IgG Fc chip, IL-13 as analyte, 25 C
T7 construct: also called recombinant mouse IL-13
T7 sequence (looked up): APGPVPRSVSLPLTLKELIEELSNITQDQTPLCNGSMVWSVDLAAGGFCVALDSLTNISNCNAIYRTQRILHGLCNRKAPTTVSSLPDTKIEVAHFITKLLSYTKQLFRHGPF

human IL-13 [8] = target: T5, human IL-13; experiment: SPR (Biacore 8K+), antibody captured on anti-human Fc CM4 chip, human IL-13 0.6-10 nM as analyte, 37 C, 1:1 fit
HIS-tagged human FcRn [9] = target: T6, HIS-tagged human FcRn; experiment: SPR (Biacore 8K+), antibody captured on anti-human Fab CM4 chip, HIS-tagged human FcRn 9.8-5000 nM as analyte, pH 6.0, 25 C, steady-state fit
human IL-13 [10] = target: T5, human IL-13; experiment: cell-based or functional assay; remark: listed apart in the source
human IL-13 [11] = target: T5, human IL-13; experiment: KinExA, solution equilibrium, free antigen captured on Ref1-coated beads, 25 C
human FcγRI [12] = target: T1, human FcγRI; experiment: BLI (Octet RH96), biotinylated Fcγ receptor on streptavidin sensors, antibody at 10,000 nM
human FcγRIIa-H167 [13] = target: T2, human FcγRIIa-H167; experiment: as above
human FcγRIIa-R167 [14] = target: T3, human FcγRIIa-R167; experiment: as above
human FcγRIIb [15] = target: T4, human FcγRIIb; experiment: as above
human IL-13 [16] = target: T5, human IL-13; experiment: SPR (Biacore 8K+), antibody captured on anti-human pAb CM4 chip, human IL-13 0.6-10 nM as analyte, 37 C, 1:1 fit

T1 sequence (P12314 16-288 limits assumed): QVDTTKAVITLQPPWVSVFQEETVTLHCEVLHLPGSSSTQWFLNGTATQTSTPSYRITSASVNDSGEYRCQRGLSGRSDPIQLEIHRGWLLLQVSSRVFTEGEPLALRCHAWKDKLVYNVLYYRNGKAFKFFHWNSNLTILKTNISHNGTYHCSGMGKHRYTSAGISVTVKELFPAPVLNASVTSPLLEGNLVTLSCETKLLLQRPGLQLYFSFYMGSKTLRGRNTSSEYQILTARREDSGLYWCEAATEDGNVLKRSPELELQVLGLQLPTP

binding result (human FcγRI [1]): binds
binding result (human FcγRIIa-H167 [2]): binds
binding result (human FcγRIIa-R167 [3]): binds
binding result (human FcγRIIb [4]): binds
Mean IC50 (nM), HEK-Blue IL-4/IL-13 assay with 3.7 nM IL-13 (human IL-13 [5]): 0.113 nM
Mean IC50 (nM) Donor 1, Phospho-STAT6 assay in human CD14+ monocytes (human IL-13 [6]): 34.9 nM
Mean IC50 (nM) Donor 2, Phospho-STAT6 assay in human CD14+ monocytes (human IL-13 [6]): 33 nM
Mean IC50 (nM) Donor 3, Phospho-STAT6 assay in human CD14+ monocytes (human IL-13 [6]): 37.7 nM
Mean IC50 (nM) Donor 1, Phospho-STAT6 assay in cynomolgus CD14+ monocytes (cynomolgus IL-13): 18.8 nM
Mean IC50 (nM) Donor 2, Phospho-STAT6 assay in cynomolgus CD14+ monocytes (cynomolgus IL-13): 15.1 nM
Mean IC50 (nM) Donor 3, Phospho-STAT6 assay in cynomolgus CD14+ monocytes (cynomolgus IL-13): 18.1 nM
fold higher affinity than Ref2 (HIS-tagged human FcRn [7]): 6 fold
binding result (human FcγRIIIb-NA1): no binding (tested: 10,000 nM)
binding result (human FcγRIIIb-NA2): no binding (tested: 10,000 nM)
binding result (human FcγRIIIa-V176): binds
binding result (human FcγRIIIa-F176): binds
binding result (mouse IL-13): no binding
Kd (human IL-13 [8]): 7.22 pM
koff (human IL-13 [8]): 4.85e-06 s⁻¹
kon (human IL-13 [8]): 676000 M⁻¹ s⁻¹
Kd (HIS-tagged human FcRn [9]): 129 nM
B1: AbAB (antibody, human IgG1, kappa)
heavy: QVTLRESGPALVKPTQTLTLTCTVSGASLSAYSVNWIRQPPGKALEWLAMIWGDGKIVYNSALKSRLTISKDTSKNQVVLTMTNMDPVDTATYYCAGDGYFPYAMDNWGQGSLVTVSSASTKGPSVFPLAPSSKSTSGGTAALGCLVKDYFPEPVTVSWNSGALTSGVHTFPAVLQSSGLYSLSSVVTVPSSSLGTQTYICNVNHKPSNTKVDKRVEPKSCDKTHTCPPCPAPEFEGGPSVFLFPPKPKDTLYITREPEVTCVVVDVSHEDPEVKFNWYVDGVEVHNAKTKPREEQYNSTYRVVSVLTVLHQDWLNGKEYKCKVSNKALPASIEKTISKAKGQPREPQVYTLPPSREEMTKNQVSLTCLVKGFYPSDIAVEWESNGQPENNYKTTPPVLDSDGSFFLYSKLTVDKSRWQQGNVFSCSVMHEALHNHYTQKSLSLSPGK
light: DIVMTQSPDSLSVSLGERATINCRASKSVDSYGNSYMHWYQQKPGQPPKLLIYLASNLESGVPDRFSGSGSGTDFTLTISSLQAEDVAVYYCQQNNEDPRTFGGGTKVEIKRTVAAPSVFIFPPSDEQLKSGTASVVCLLNNFYPREAKVQWKVDNALQSGNSQESVTEQDSKDSTYSLSSTLTLSKADYEKHKVYACEVTHQGLSSPVTKSFNRGEC
notes: same variable regions as AbG; also called Antibody AbAB

IC50, HEK-Blue IL-13Ra1/IL-4Ra STAT6-SEAP reporter assay (human IL-13 [10]): 0.277 µg/mL
binding result (human FcγRIIIb-NA1): no binding (tested: 10,000 nM)
binding result (human FcγRIIIb-NA2): no binding (tested: 10,000 nM)
Kd (human IL-13 [11]): 9.09 pM
koff (human IL-13 [11]): 9.76e-06 s⁻¹
kon (human IL-13 [11]): 1.07e+06 M⁻¹ s⁻¹
binding result (human FcγRI [12]): binds
binding result (human FcγRIIa-H167 [13]): binds
binding result (human FcγRIIa-R167 [14]): binds
binding result (human FcγRIIb [15]): binds
binding result (human FcγRIIIa-F176): binds
binding result (mouse IL-13): no binding
Kd (human IL-13 [16]): 0.0512 nM
koff (human IL-13 [16]): 3.22e-05 s⁻¹
kon (human IL-13 [16]): 695000 M⁻¹ s⁻¹
Kd (HIS-tagged human FcRn [9]): 734 nM
B2: Ref2 (antibody, human IgG4 S228P, kappa)
heavy: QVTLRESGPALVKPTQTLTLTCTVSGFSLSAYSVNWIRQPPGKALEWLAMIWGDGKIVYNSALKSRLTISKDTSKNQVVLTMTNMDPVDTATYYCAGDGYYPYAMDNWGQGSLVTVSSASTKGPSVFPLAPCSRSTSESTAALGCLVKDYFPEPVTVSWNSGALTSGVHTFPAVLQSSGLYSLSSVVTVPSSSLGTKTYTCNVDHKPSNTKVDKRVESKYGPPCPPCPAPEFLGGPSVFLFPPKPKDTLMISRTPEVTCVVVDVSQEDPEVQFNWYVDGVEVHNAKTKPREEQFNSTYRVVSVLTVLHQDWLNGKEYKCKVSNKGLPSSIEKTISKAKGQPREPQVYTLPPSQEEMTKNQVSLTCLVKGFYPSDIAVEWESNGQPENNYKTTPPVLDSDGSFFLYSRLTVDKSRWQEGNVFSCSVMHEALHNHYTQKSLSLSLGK
light: DIVMTQSPDSLSVSLGERATINCRASKSVDSYGNSFMHWYQQKPGQPPKLLIYLASNLESGVPDRFSGSGSGTDFTLTISSLQAEDVAVYYCQQNNEDPRTFGGGTKVEIKRTVAAPSVFIFPPSDEQLKSGTASVVCLLNNFYPREAKVQWKVDNALQSGNSQESVTEQDSKDSTYSLSSTLTLSKADYEKHKVYACEVTHQGLSSPVTKSFNRGEC
notes: hIgG4; copies: 2 + 2
